Data from the supplement of paper PMC10567573.

B1: TRIM43 (parent)
chain: NNSWIRKNSTMVNSEDIFLLLCLK

Variants of: B1
Assay: protein stability index of a GFP-peptide fusion (GPS, HEK-293T) (PSI 1-6); higher = more stable
Details: c terminus: a fixed tail appended
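Further: lentivirally expressed fusions sorted by FACS into six bins by GFP to DsRed ratio, PSI derived from sequencing read proportions per bin multiplied by bin number.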

Variant	protein stability index
NNSWIRKNSTMRNSEDIFLLLCLK	4.39
NNSWIRKNSTMHNSEDIFLLLCLK	1.81
NNSWIRKNSTMMNSEDIFLLLCLK	3.38
NNSWIRKNSTMNNSEDIFLLLCLK	3.36
NNSWIRKNSTMTNSEDIFLLLCLK	4.1
NNSWIRKNSTMPNSEDIFLLLCLK	2.79
NNSWIRKNSTMCNSEDIFLLLCLK	1.62
NNSWIRKNSTMINSEDIFLLLCLK	2.53
NNSWIRKNSTMENSEDIFLLLCLK	2.92
NNSWIRKNSTMLNSEDIFLLLCLK	3.58
NNSWIRKNSTMWNSEDIFLLLCLK	2.41
NNSWIRKNSTMANSEDIFLLLCLK	2.57
NNSWIRKNSTMFNSEDIFLLLCLK	2.89
NNSWIRKNSTMGNSEDIFLLLCLK	2.21
NNSWIRKNSTMSNSEDIFLLLCLK	4.3
NNSWIRKNSTMYNSEDIFLLLCLK	3.38
NNSWIRKNSTMKNSEDIFLLLCLK	2.75
NNSWIRKNSTMDNSEDIFLLLCLK	1.97
NNSWIRKNSTHVNSEDIFLLLCLK	2.44
NNSWIRKNSTRVNSEDIFLLLCLK	2.69
NNSWIRKNSTWVNSEDIFLLLCLK	2.44
NNSWIRKNSTYVNSEDIFLLLCLK	2.99
NNSWIRKNSTSVNSEDIFLLLCLK	2.27
NNSWIRKNSTIVNSEDIFLLLCLK	1.89

Variant	protein stability index
NNSWIRKNSTVVNSEDIFLLLCLK	2.69
NNSWIRKNSTNVNSEDIFLLLCLK	1.86
NNSWIRKNSTTVNSEDIFLLLCLK	3.06
NNSWIRKNSTPVNSEDIFLLLCLK	2.15
NNSWIRKNSTLVNSEDIFLLLCLK	3.95
NNSWIRKNSTGVNSEDIFLLLCLK	3.08
NNSWIRKNSTKVNSEDIFLLLCLK	2.38
NNSWIRKNSTQVNSEDIFLLLCLK	3.54
NNSWIRKNSTMVNSEDIFLVLCLK	2.57
NNSWIRKNSTMVNSEDIFLGLCLK	1.48
NNSWIRKNSTMVNSEDIFLILCLK	2.64
NNSWIRKNSTMVNSEDIFLPLCLK	2.46
NNSWIRKNSTMVNSEDIFLFLCLK	2.92
NNSWIRKNSTMVNSEDIFLSLCLK	2.28
NNSWIRKNSTMVNSEDIFLYLCLK	2.75
NNSWIRKNSTMVNSEDIFLNLCLK	3
NNSWIRKNSTMVNSEDIFLRLCLK	1.72
NNSWIRKNSTMVNSEDIFLELCLK	1.75
NNSWIRKNSTMVNSEDIFLTLCLK	2.72
NNSWIRKNSTMVNSEDIFLDLCLK	2.27
NNSWIRKNSTMVNSEDIFLALCLK	2.14
NNSWIRKNSTMVNSEDIFLCLCLK	2.25
NNSWIRKNSTMVNSEDIFLQLCLK	3.05
NNSWIRKNSTMVNSEDIFLWLCLK	3.12

Variant	protein stability index
NNSWIRKNSTMVNSEDIFLKLCLK	2.36
NNSWIRKNSTMVNSEDIFLMLCLK	3.31
NNSWIRKNSTMVNSEDIFLHLCLK	2.5
NNSWIRKNSTMVESEDIFLLLCLK	2.47
NNSWIRKNSTMVGSEDIFLLLCLK	3.19
NNSWIRKNSTMVASEDIFLLLCLK	3.6
NNSWIRKNSTMVPSEDIFLLLCLK	2.87
NNSWIRKNSTMVWSEDIFLLLCLK	3.07
NNSWIRKNSTMVRSEDIFLLLCLK	2.39
NNSWIRKNSTMVSSEDIFLLLCLK	2.96
NNSWIRKNSTMVYSEDIFLLLCLK	2.33
NNSWIRKNSTMVFSEDIFLLLCLK	2.69
NNSWIRKNSTMVCSEDIFLLLCLK	3.44
NNSWIRKNSTMVISEDIFLLLCLK	2.37
NNSWIRKNSTMVHSEDIFLLLCLK	3
NNSWIRKNSTMVTSEDIFLLLCLK	1.95
NNSWIRKNSTMVMSEDIFLLLCLK	3.59
NNSWIRKNSTMVDSEDIFLLLCLK	3.31
NNSWIRKNSTMVLSEDIFLLLCLK	2.44
NNSWIRKNSTMVQSEDIFLLLCLK	3.14
NNSWIRKNSTMVKSEDIFLLLCLK	3.69
NNSWIRKNSTMVVSEDIFLLLCLK	2.72
NNSWIRKNSTMVNSELIFLLLCLK	2.59
NNSWIRKNSTMVNSEMIFLLLCLK	2.45

Variant	protein stability index
NNSWIRKNSTMVNSEEIFLLLCLK	3.13
NNSWIRKNSTMVNSEGIFLLLCLK	2.5
NNSWIRKNSTMVNSEFIFLLLCLK	2.37
NNSWIRKNSTMVNSEVIFLLLCLK	2.92
NNSWIRKNSTMVNSERIFLLLCLK	2.8
NNSWIRKNSTMVNSETIFLLLCLK	2.47
NNSWIRKNSTMVNSENIFLLLCLK	4.97
NNSWIRKNSTMVNSEAIFLLLCLK	1.59
NNSWIRKNSTMVNSECIFLLLCLK	3.95
NNSWIRKNSTMVNSEWIFLLLCLK	3.2
NNSWIRKNSTMVNSEHIFLLLCLK	1.71
NNSWIRKNSTMVNSEKIFLLLCLK	3.16
NNSWIRKNSTMVNSEYIFLLLCLK	2.65
NNSWIRKNSTMVNSEQIFLLLCLK	2.49
NNSWIRKNSTMVNSEIIFLLLCLK	2.17
NNSWIRKNSTMVNSESIFLLLCLK	1.7
NNSWIRKNSTMVNSEPIFLLLCLK	2.23
NNSWIRKNSTMVNDEDIFLLLCLK	2.77
NNSWIRKNSTMVNMEDIFLLLCLK	2.13
NNSWIRKNSTMVNTEDIFLLLCLK	2.17
NNSWIRKNSTMVNNEDIFLLLCLK	2.82
NNSWIRKNSTMVNAEDIFLLLCLK	3.2
